Legend:
[1] = substrate: O=c1c(Cc2ccccc2)nc2c([Se]c3ccccc3)[nH]c(-c3ccccc3)cn1-2; experiment: purified protein, by the assay type; conditions: other: apparent, 100 pM enzyme, substrate 0.78 to 50 μM, assay buffer pH 6.0, mean ± s.d., n = 3, 37.0 °C
Description: FIG. 8 is a panel of graphs showing substrate titrations with pure enzymes to determine apparent Michaelis constants (Km). Titrations using new luciferases (8a) and Fluc (8b) are shown. The final concentrations of all enzymes were 100 pM. Substrate concentrations varied from 0.78 to 50 μM, and peak bioluminescence intensities at individual substrate concentrations were used to fit the Michaelis-Menten equation. Data are shown as mean and s.d. of three independent experiments.
Luciferases were expressed and purified as His6-tagged fusion proteins (FIG. 18).
A Synergy Mx Microplate Reader (BioTek) was used for all in vitro bioluminescence characterizations. For kinetics measurements, no emission filter or monochromator was used. 50 μL of luciferin substrates in the assay buffer (1 mM CDTA, 0.5% Tergitol NP-40, 0.05% Antifoam 204, 150 mM KCl, 100 mM IVIES pH 6.0, 1 mM DTT, and 35 mM thiourea) was injected into the wells of white 96-well plates containing 50 μL of pure enzymes in the same assay buffer. The final concentrations of all enzymes and substrates were 100 pM and 30 μM, respectively. Measurements were taken every 60 s post-injection (1-s integration and 10-s shaking during intervals). FLuc bioluminescence assays were performed similarly, except the assay buffer contained 30 mM MOPS, pH 7.0, 1.5 mM ATP, and 5 mM MgSO4.

[2] = substrate: O=c1c(Cc2ccccc2)nc2c(-c3ccccc3)[nH]c(-c3ccccc3)cn1-2; experiment: purified protein, by the assay type; conditions: other: apparent, 100 pM enzyme, substrate 0.78 to 50 μM, assay buffer pH 6.0, mean ± s.d., n = 3, 37.0 °C

Row | Protein | Km [1] [µM] | kcat [1] [s⁻¹] | Km [2] [µM] | kcat [2] [s⁻¹]
1 | yeLuc, NanoLuc variant yeLuc0.8-F1L/A14D/V27L/Q69R/R112Q/L142R (yeLuc0.8 = NanoLuc-L18Q/D19A/S28T/C164S), SEQ ID NO: 4 (Oplophorus gracilirostris; … (protein) MVLTLEDFVGDWRQTDGYNQAQVLEQGGLTSLFQNLGVSVTPIQRIVLSGENGLKIDIHVIIPYEGLSGDRMGQIEKIFKVVYPVDDHHFKVILHYGTLVIDGVTPNMIDYFGQPYEGIAVFDGKKITVTGTLWNGNKIIDERRINPDGSLLFRVTINGVTGWRLSERILA | 11.9 ± 0.9 | 175 ± 5 |  | 
2 | teLuc, NanoLuc variant D19S/D85N/C164H, SEQ ID NO: 2 (Oplophorus gracilirostris; … (protein) MVFTLEDFVGDWRQTAGYNLSQVLEQGGVSSLFQNLGVSVTPIQRIVLSGENGLKIDIHVIIPYEGLSGDQMGQIEKIFKVVYPVDNHHFKVILHYGTLVIDGVTPNMIDYFGRPYEGIAVFDGKKITVTGTLWNGNKIIDERLINPDGSLLFRVTINGVTGWRLHERILA |  |  | 10.2 ± 0.4 | 88.1 ± 0.1
3 | yeLuc0.8, NanoLuc variant L18Q/D19A/S28T/C164S, SEQ ID NO: 3 (Oplophorus gracilirostris; … (protein) MVFTLEDFVGDWRQTAGYNQAQVLEQGGVTSLFQNLGVSVTPIQRIVLSGENGLKIDIHVIIPYEGLSGDQMGQIEKIFKVVYPVDDHHFKVILHYGTLVIDGVTPNMIDYFGRPYEGIAVFDGKKITVTGTLWNGNKIIDERLINPDGSLLFRVTINGVTGWRLSERILA | 6.3 ± 0.5 |  |  | 
4 | Antares2 (Antares with NanoLuc replaced by teLuc, D19S/D85N/C164H; fused to CyOFP1) (Oplophorus gracilirostris; … (protein) MVFTLEDFVGDWRQTAGYNLSQVLEQGGVSSLFQNLGVSVTPIQRIVLSGENGLKIDIHVIIPYEGLSGDQMGQIEKIFKVVYPVDNHHFKVILHYGTLVIDGVTPNMIDYFGRPYEGIAVFDGKKITVTGTLWNGNKIIDERLINPDGSLLFRVTINGVTGWRLHERILA |  |  | 9.7 ± 0.2 | 86.1 ± 0.7

From patent publication US10202584B2, “Red-shifted luciferase-luciferin pairs for enhanced bioluminescence” (The Regents of the University of California, priority 2016, dated 2019)
